The sequences below were run on Escherichia coli TOP10 (assay: shrunken log2 fold change of peptide-encoding DNA abundance (4.5 h post-induction vs induction); higher = less antimicrobial activity (less host growth inhibition)). Details: time post-induction: 4.5 h; library: site-saturation at positions 5, 18, 19, 20.
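Note: peptides expressed intracellularly from a pBAD plasmid library in pooled LB shake-flask culture, induced with 0.3% L-arabinose, DNA abundance read by NGS, three biological replicates, DESeq2 with apeglm shrinkage.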

Row | Sequence | shrunken log2 fold change
1 | RRIRYRPPRLPRPRPRPANAPRP | 0.00281
2 | RRIRYRPPRLPRPRPRPANFPRP | 0.0515
3 | RRIRYRPPRLPRPRPRPAPDPRP | 0.307
4 | RRIRYRPPRLPRPRPRPAPEPRP | 0.134
5 | RRIRYRPPRLPRPRPRPAPKPRP | 0.207
6 | RRIRYRPPRLPRPRPRPAPVPRP | 0.125
7 | RRIRYRPPRLPRPRPRPAVHPRP | -0.0328
8 | RRIRYRPPRLPRPRPRPAVKPRP | -0.0154
9 | RRIRYRPPRLPRPRPRPAVVPRP | -0.149
10 | RRIRYRPPRLPRPRPRPAWYPRP | -0.687
11 | RRIRYRPPRLPRPRPRPAYKPRP | -0.14
12 | RRIRYRPPRLPRPRPRPCALPRP | -0.671
13 | RRIRYRPPRLPRPRPRPCFRPRP | -0.266
14 | RRIRYRPPRLPRPRPRPCGCPRP | -0.0582
15 | RRIRYRPPRLPRPRPRPCGYPRP | -0.467
16 | RRIRYRPPRLPRPRPRPCHFPRP | -0.0527
17 | RRIRYRPPRLPRPRPRPCKKPRP | -0.0222
18 | RRIRYRPPRLPRPRPRPCKRPRP | -0.0961
19 | RRIRYRPPRLPRPRPRPCLCPRP | -0.453
20 | RRIRYRPPRLPRPRPRPCLDPRP | -0.125
21 | RRIRYRPPRLPRPRPRPCLTPRP | -0.125
22 | RRIRYRPPRLPRPRPRPCLYPRP | -0.783

Row | Sequence | shrunken log2 fold change
23 | RRIRYRPPRLPRPRPRPCMPPRP | -0.123
24 | RRIRYRPPRLPRPRPRPCMWPRP | 0.0465
25 | RRIRYRPPRLPRPRPRPCNRPRP | -0.182
26 | RRIRYRPPRLPRPRPRPCPYPRP | -0.0107
27 | RRIRYRPPRLPRPRPRPCRGPRP | -0.157
28 | RRIRYRPPRLPRPRPRPCRPPRP | -0.0124
29 | RRIRYRPPRLPRPRPRPCRWPRP | -0.267
30 | RRIRYRPPRLPRPRPRPCSEPRP | -0.067
31 | RRIRYRPPRLPRPRPRPCSYPRP | -0.0018
32 | RRIRYRPPRLPRPRPRPCYYPRP | -1.03
33 | RRIRYRPPRLPRPRPRPDAQPRP | -0.0145
34 | RRIRYRPPRLPRPRPRPDCEPRP | 0.0295
35 | RRIRYRPPRLPRPRPRPDDNPRP | 0.0238
36 | RRIRYRPPRLPRPRPRPDDSPRP | 0.00262
37 | RRIRYRPPRLPRPRPRPDFRPRP | 0.129
38 | RRIRYRPPRLPRPRPRPDFWPRP | 0.125
39 | RRIRYRPPRLPRPRPRPDGMPRP | 0.0112
40 | RRIRYRPPRLPRPRPRPDGWPRP | 0.212
41 | RRIRYRPPRLPRPRPRPDKKPRP | -0.0333
42 | RRIRYRPPRLPRPRPRPDKYPRP | 0.0363
43 | RRIRYRPPRLPRPRPRPDLMPRP | -0.107
44 | RRIRYRPPRLPRPRPRPDMMPRP | -0.417

Row | Sequence | shrunken log2 fold change
45 | RRIRYRPPRLPRPRPRPDNTPRP | -0.325
46 | RRIRYRPPRLPRPRPRPDQPPRP | 0.0375
47 | RRIRYRPPRLPRPRPRPDRDPRP | -0.109
48 | RRIRYRPPRLPRPRPRPDSAPRP | -0.378
49 | RRIRYRPPRLPRPRPRPDSYPRP | -0.0836
50 | RRIRYRPPRLPRPRPRPDTCPRP | -0.233
51 | RRIRYRPPRLPRPRPRPDYFPRP | -0.22
52 | RRIRYRPPRLPRPRPRPEDCPRP | -0.029
53 | RRIRYRPPRLPRPRPRPEDPPRP | -0.0591
54 | RRIRYRPPRLPRPRPRPEDRPRP | 0.119
55 | RRIRYRPPRLPRPRPRPEFIPRP | -0.628
56 | RRIRYRPPRLPRPRPRPEFPPRP | 0.011
57 | RRIRYRPPRLPRPRPRPEFVPRP | -0.327
58 | RRIRYRPPRLPRPRPRPEGEPRP | 0.199
59 | RRIRYRPPRLPRPRPRPEHHPRP | -0.646
60 | RRIRYRPPRLPRPRPRPEHYPRP | -0.126
61 | RRIRYRPPRLPRPRPRPEIFPRP | -0.159
62 | RRIRYRPPRLPRPRPRPEIPPRP | 0.0336
63 | RRIRYRPPRLPRPRPRPELKPRP | -0.162
64 | RRIRYRPPRLPRPRPRPELNPRP | -0.395
65 | RRIRYRPPRLPRPRPRPEPHPRP | -0.0423
66 | RRIRYRPPRLPRPRPRPEQNPRP | 0.00317

Row | Sequence | shrunken log2 fold change
67 | RRIRYRPPRLPRPRPRPERNPRP | 0.00677
68 | RRIRYRPPRLPRPRPRPERVPRP | -0.0107
69 | RRIRYRPPRLPRPRPRPESKPRP | -0.859
70 | RRIRYRPPRLPRPRPRPETDPRP | -0.021
71 | RRIRYRPPRLPRPRPRPETWPRP | 0.093
72 | RRIRYRPPRLPRPRPRPETYPRP | -0.372
73 | RRIRYRPPRLPRPRPRPEVHPRP | -0.187
74 | RRIRYRPPRLPRPRPRPEWLPRP | 0.00963
75 | RRIRYRPPRLPRPRPRPEYNPRP | -0.15
76 | RRIRYRPPRLPRPRPRPEYPPRP | -0.01
77 | RRIRYRPPRLPRPRPRPEYWPRP | -0.692
78 | RRIRYRPPRLPRPRPRPFCCPRP | -0.509
79 | RRIRYRPPRLPRPRPRPFCDPRP | -0.208
80 | RRIRYRPPRLPRPRPRPFCWPRP | -0.212
81 | RRIRYRPPRLPRPRPRPFDKPRP | -0.0924
82 | RRIRYRPPRLPRPRPRPFGKPRP | -0.0625
83 | RRIRYRPPRLPRPRPRPFHYPRP | -0.21
84 | RRIRYRPPRLPRPRPRPFICPRP | -0.579
85 | RRIRYRPPRLPRPRPRPFKEPRP | -0.146
86 | RRIRYRPPRLPRPRPRPFKMPRP | -0.673
87 | RRIRYRPPRLPRPRPRPFKTPRP | -0.398
88 | RRIRYRPPRLPRPRPRPFLMPRP | -0.922

Row | Sequence | shrunken log2 fold change
89 | RRIRYRPPRLPRPRPRPFLRPRP | -0.308
90 | RRIRYRPPRLPRPRPRPFPIPRP | -0.705
91 | RRIRYRPPRLPRPRPRPFPMPRP | -0.834
92 | RRIRYRPPRLPRPRPRPFSYPRP | -0.145
93 | RRIRYRPPRLPRPRPRPFVAPRP | -0.696
94 | RRIRYRPPRLPRPRPRPFWVPRP | -0.0684
95 | RRIRYRPPRLPRPRPRPFYEPRP | -1.2
96 | RRIRYRPPRLPRPRPRPFYKPRP | -0.00388
97 | RRIRYRPPRLPRPRPRPFYNPRP | -1.15
98 | RRIRYRPPRLPRPRPRPFYTPRP | -1.19
99 | RRIRYRPPRLPRPRPRPGAAPRP | 0.176
100 | RRIRYRPPRLPRPRPRPGAPPRP | 0.312
101 | RRIRYRPPRLPRPRPRPGCFPRP | -0.349
102 | RRIRYRPPRLPRPRPRPGCKPRP | -0.0843
103 | RRIRYRPPRLPRPRPRPGCPPRP | -0.085
104 | RRIRYRPPRLPRPRPRPGCSPRP | -0.214
105 | RRIRYRPPRLPRPRPRPGDKPRP | -0.288
106 | RRIRYRPPRLPRPRPRPGEVPRP | -0.0129
107 | RRIRYRPPRLPRPRPRPGFEPRP | -0.127
108 | RRIRYRPPRLPRPRPRPGGCPRP | 0.0169
109 | RRIRYRPPRLPRPRPRPGHAPRP | 3.02

From the supplement of paper PMC9112550, “Optimization of the antimicrobial peptide Bac7 by deep mutational scanning” (BMC Biology, 2022)
